± gives the standard deviation.
Experiment: protein stability index of a GFP-peptide fusion (GPS, HEK-293T) (PSI 1-6); higher = more stable
Details: c terminus: a fixed tail appended
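Note: 24-mer peptide tiles fused after GFP, lentivirally expressed, FACS-sorted into six equal bins by GFP/DsRed ratio, decoded by Illumina sequencing, PSI is the read-weighted mean bin number.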

Sequence: VERSKMIDRNLREDGEKAAREVKL [GNAI1]
- protein stability index (treatment: DMSO): 4.93 ± 0.38
- protein stability index (treatment: MLN4924 1 uM, 8 h): 5.09 ± 0.062

Sequence: FAAEAGHIDIVKELIKWRAAIVVN [FEM1B]
- protein stability index (treatment: DMSO): 2.3 ± 0.28
- protein stability index (treatment: MLN4924 1 uM, 8 h): 2.02 ± 0.55

Sequence: TMEDTLMTVKQYEAARLEYDAYRT [ARFIP2]
- protein stability index (treatment: DMSO): 3.88 ± 0.27
- protein stability index (treatment: MLN4924 1 uM, 8 h): 3.74 ± 0.3

Sequence: SYSAGDSGDAAAQPAFTGIKGKEG [EPB41L3]
- protein stability index (treatment: DMSO): 5.37 ± 0.15
- protein stability index (treatment: MLN4924 1 uM, 8 h): 5.3 ± 0.25

Sequence: KEQSKELQMKLEKLREKERKKEAK [FAM50A]
- protein stability index (treatment: DMSO): 5.02 ± 0.54
- protein stability index (treatment: MLN4924 1 uM, 8 h): 5.55 ± 0.16

Sequence: LLTWTEPPVRPAGYLLSFHTPGGQ [TNXB]
- protein stability index (treatment: DMSO): 2.42 ± 0.23
- protein stability index (treatment: MLN4924 1 uM, 8 h): 2.64 ± 0.29

Sequence: LTGQKAVKVHGLLKTFVKQTDHIK [GFOD1]
- protein stability index (treatment: DMSO): 2.85 ± 0.29
- protein stability index (treatment: MLN4924 1 uM, 8 h): 2.59 ± 0.27

Sequence: GFFLLQLANHTGYIKVDWQRVEKD [FUNDC2]
- protein stability index (treatment: DMSO): 2.34 ± 0.69
- protein stability index (treatment: MLN4924 1 uM, 8 h): 2.11 ± 0.37

Sequence: KWFGRKRTLSAFLCLGGLACLIVM [SLC22A15]
- protein stability index (treatment: DMSO): 5.07 ± 0.21
- protein stability index (treatment: MLN4924 1 uM, 8 h): 5.17 ± 0.18

Sequence: EQAKKESEDQKRLKQAKELDRERA [CHCHD3]
- protein stability index (treatment: DMSO): 5.57 ± 0.24
- protein stability index (treatment: MLN4924 1 uM, 8 h): 5.48 ± 0.17

Sequence: YFSLYCLHQETQLIHVYLPLTSHI [SNX8]
- protein stability index (treatment: DMSO): 2.95 ± 0.35
- protein stability index (treatment: MLN4924 1 uM, 8 h): 2.78 ± 0.32

Sequence: QKLLEQTQIIGEQNARLAELERKL [FBXO28]
- protein stability index (treatment: DMSO): 4.15 ± 0.082
- protein stability index (treatment: MLN4924 1 uM, 8 h): 4.24 ± 0.38

Sequence: RRLFGPVDSEQLRRDCDALMAGCI [CDKN1A]
- protein stability index (treatment: DMSO): 2.75 ± 0.26
- protein stability index (treatment: MLN4924 1 uM, 8 h): 2.74 ± 0.34

Sequence: VLEDNIIVSEVQFVESSGGGSSAV [BRF1]
- protein stability index (treatment: DMSO): 3.75 ± 0.21
- protein stability index (treatment: MLN4924 1 uM, 8 h): 3.89 ± 0.27

Sequence: LTGLQLKLGPALKIYEYHVKPLQT [SAMD13]
- protein stability index (treatment: DMSO): 2.26 ± 0.29
- protein stability index (treatment: MLN4924 1 uM, 8 h): 2.47 ± 0.42

Sequence: IERQWGNLLGEGQHKCDECGKSFT [ZSCAN9]
- protein stability index (treatment: DMSO): 3.79 ± 0.34
- protein stability index (treatment: MLN4924 1 uM, 8 h): 3.55 ± 0.22

Sequence: HSGDLGQLDGLGFLYVTGHIKEIL [ACSBG2]
- protein stability index (treatment: DMSO): 2.09 ± 0.17
- protein stability index (treatment: MLN4924 1 uM, 8 h): 2.19 ± 0.32

Sequence: YLVQGLVEECQAALQNKDTYEPFC [KCTD10]
- protein stability index (treatment: DMSO): 2.32 ± 0.46
- protein stability index (treatment: MLN4924 1 uM, 8 h): 2.65 ± 0.24

Sequence: MGKRYFCDYCDRSFQDNLHNRKKH [ZMAT5]
- protein stability index (treatment: DMSO): 3.03 ± 0.33
- protein stability index (treatment: MLN4924 1 uM, 8 h): 3.42 ± 0.34

Sequence: EPPPKSGPSLVPGKTPTVRAALIC [CD207]
- protein stability index (treatment: DMSO): 3 ± 0.15
- protein stability index (treatment: MLN4924 1 uM, 8 h): 3 ± 0.23

Sequence: INVNDLSFVTGSHVGELIIWDALD [WDR41]
- protein stability index (treatment: DMSO): 2.22 ± 0.41
- protein stability index (treatment: MLN4924 1 uM, 8 h): 2.12 ± 0.2

Sequence: KPSENHPLHNSGLLSLDPVQDKTP [MED27]
- protein stability index (treatment: DMSO): 4.984 ± 0.04
- protein stability index (treatment: MLN4924 1 uM, 8 h): 5.02 ± 0.22

Sequence: PGGGRLLLSTSLDAKDELEERLER [INTS3]
- protein stability index (treatment: DMSO): 4.94 ± 0.3
- protein stability index (treatment: MLN4924 1 uM, 8 h): 4.84 ± 0.15

Sequence: MKFAQVFGCFFYVYYIFERLCAPL [SOAT1]
- protein stability index (treatment: DMSO): 2.89 ± 0.54
- protein stability index (treatment: MLN4924 1 uM, 8 h): 2.87 ± 0.51

Sequence: TPEDSDPDHFDTAILFTRQDLCGV [ADAMTS4]
- protein stability index (treatment: DMSO): 4.15 ± 0.092
- protein stability index (treatment: MLN4924 1 uM, 8 h): 4.18 ± 0.17

Sequence: LIAEVMGEDIPEKIKDEVHPEVKC [C8orf76]
- protein stability index (treatment: DMSO): 4.51 ± 0.58
- protein stability index (treatment: MLN4924 1 uM, 8 h): 4.31 ± 0.14

Sequence: VVCVLLNLAGFILGCQGAQFVSSV [FAM189A2]
- protein stability index (treatment: DMSO): 3.35 ± 0.99
- protein stability index (treatment: MLN4924 1 uM, 8 h): 2.21 ± 0.42

Sequence: DLSHIEGLSQAPQPLADEGPPGRS [SERTAD1]
- protein stability index (treatment: DMSO): 5.11 ± 0.31
- protein stability index (treatment: MLN4924 1 uM, 8 h): 5.14 ± 0.36

Sequence: MAVPPGHGPFSGFPGPQEHTQVLP [DYRK1B]
- protein stability index (treatment: DMSO): 3.75 ± 0.29
- protein stability index (treatment: MLN4924 1 uM, 8 h): 3.66 ± 0.065

Sequence: IVIFCLETLPELKDDKDFTGTVHR [KCNA1]
- protein stability index (treatment: DMSO): 2.42 ± 0.46
- protein stability index (treatment: MLN4924 1 uM, 8 h): 2.16 ± 0.27

Sequence: ATKITLSAIYKWITDNFCYFRHAD [FOXJ1]
- protein stability index (treatment: DMSO): 3 ± 0.21
- protein stability index (treatment: MLN4924 1 uM, 8 h): 2.77 ± 0.49

Sequence: GRPKELQPKKLHLCPLCGKNFSNN [ZNF263]
- protein stability index (treatment: DMSO): 2.88 ± 0.46
- protein stability index (treatment: MLN4924 1 uM, 8 h): 3.58 ± 0.52

Sequence: RAPVVGVRVNVLLSRYLIEPCGPG [DLC1]
- protein stability index (treatment: DMSO): 2.45 ± 0.7
- protein stability index (treatment: MLN4924 1 uM, 8 h): 2.79 ± 0.86

Sequence: LMSDLRRKRTAHERAKELYSSGEF [INTS4]
- protein stability index (treatment: DMSO): 3.54 ± 0.19
- protein stability index (treatment: MLN4924 1 uM, 8 h): 3.65 ± 0.1

Sequence: SEGKVLTLAALLLNRSESDIRYLL [FEM1B]
- protein stability index (treatment: DMSO): 2.43 ± 0.56
- protein stability index (treatment: MLN4924 1 uM, 8 h): 2.38 ± 0.24

Sequence: GNNLHNASIPEHLAYGSVITVKNL [POMT2]
- protein stability index (treatment: DMSO): 3.05 ± 0.37
- protein stability index (treatment: MLN4924 1 uM, 8 h): 3.02 ± 0.28

Sequence: PQDLAPQVSAHHRSQESLTSQESE [TBC1D10A]
- protein stability index (treatment: DMSO): 5.64 ± 0.15
- protein stability index (treatment: MLN4924 1 uM, 8 h): 5.56 ± 0.23

Sequence: RVDVDTYLTSQLPPLREIILGPSS [NFE2L1]
- protein stability index (treatment: DMSO): 2.67 ± 0.46
- protein stability index (treatment: MLN4924 1 uM, 8 h): 2.67 ± 0.35

Sequence: KMNLYESFAQATQLGDLHTCLMMD [INTS3]
- protein stability index (treatment: DMSO): 2.5 ± 0.2
- protein stability index (treatment: MLN4924 1 uM, 8 h): 2.58 ± 0.37

Sequence: GISTGHWSGEVKDKNVQVVELPIV [FUT8]
- protein stability index (treatment: DMSO): 3.8 ± 0.31
- protein stability index (treatment: MLN4924 1 uM, 8 h): 3.9 ± 0.37

Sequence: VVEATHMCMVMRGVQKMNSKTVTS [GCH1]
- protein stability index (treatment: DMSO): 2.82 ± 0.31
- protein stability index (treatment: MLN4924 1 uM, 8 h): 3 ± 0.45

Sequence: LKISPVTLKEAYVQKLVKVCTDTD [TENT5C]
- protein stability index (treatment: DMSO): 2.94 ± 0.16
- protein stability index (treatment: MLN4924 1 uM, 8 h): 2.91 ± 0.14

Sequence: RPIPTPVGSVHVDSGASAITRESH [CSNK1G1]
- protein stability index (treatment: DMSO): 4.86 ± 0.33
- protein stability index (treatment: MLN4924 1 uM, 8 h): 4.9 ± 0.27

Sequence: RKRRRNGSKEGNHHSTQPKRNKRN [FAM104B]
- protein stability index (treatment: DMSO): 5.22 ± 0.38
- protein stability index (treatment: MLN4924 1 uM, 8 h): 4.92 ± 0.48

Sequence: LLEGQDAKMAGIGIREASSGGGGS [KRT15]
- protein stability index (treatment: DMSO): 5.09 ± 0.14
- protein stability index (treatment: MLN4924 1 uM, 8 h): 4.87 ± 0.2
